Paper PMC8794821, “SNX27 suppresses SARS-CoV-2 infection by inhibiting viral lysosome/late endosome entry” (Proceedings of the National Academy of Sciences of the …, 2022)
No end group written: not given here.

Target: PDZ domain of SNX27 (residues 40 to 135) (human, UniProt Q96L92 40-135)
Assay: ITC; MicroCal iTC200, 25 °C; ACE2-PBM peptide (125 µM, 5% DMSO) in the syringe, PDZ protein (100 µM, 5% DMSO) in the cell; 20 mM Tris pH 8.0, 150 mM NaCl
Settings: both partners purified

B1: ACE2-PBM peptide (-DDVQTSF-COO−) (peptide)
peptide: DDVQTSF-OH
notes: also called human ACE2-PBM; source: synthetic peptide (Beijing SciLight Biotechnology Ltd. Co.)
Kd: 20 µM
